Reference: publication PMC12421802

Target: mutant MAP7D1 p.R201W (MAP7D1:c.601C>T), His/Myc-tagged (human) (UniProt Q3KQU3)
Assay: pull-down; 600 µg lysate of HEK293T cells overexpressing His/Myc-MAP7D1 (wt or mutant) incubated with MagneHis Ni particles in 100 mM HEPES, 10 mM imidazole, 500 mM NaCl, 4°C, 4 h; eluted with 500 mM imidazole; western blot with Myc-tag and β-tubulin antibodies; β-tubulin normalised to precipitated Myc-MAP7D1

UniProt Q3KQU3, sequence (Q3KQU3 whole entry R201W): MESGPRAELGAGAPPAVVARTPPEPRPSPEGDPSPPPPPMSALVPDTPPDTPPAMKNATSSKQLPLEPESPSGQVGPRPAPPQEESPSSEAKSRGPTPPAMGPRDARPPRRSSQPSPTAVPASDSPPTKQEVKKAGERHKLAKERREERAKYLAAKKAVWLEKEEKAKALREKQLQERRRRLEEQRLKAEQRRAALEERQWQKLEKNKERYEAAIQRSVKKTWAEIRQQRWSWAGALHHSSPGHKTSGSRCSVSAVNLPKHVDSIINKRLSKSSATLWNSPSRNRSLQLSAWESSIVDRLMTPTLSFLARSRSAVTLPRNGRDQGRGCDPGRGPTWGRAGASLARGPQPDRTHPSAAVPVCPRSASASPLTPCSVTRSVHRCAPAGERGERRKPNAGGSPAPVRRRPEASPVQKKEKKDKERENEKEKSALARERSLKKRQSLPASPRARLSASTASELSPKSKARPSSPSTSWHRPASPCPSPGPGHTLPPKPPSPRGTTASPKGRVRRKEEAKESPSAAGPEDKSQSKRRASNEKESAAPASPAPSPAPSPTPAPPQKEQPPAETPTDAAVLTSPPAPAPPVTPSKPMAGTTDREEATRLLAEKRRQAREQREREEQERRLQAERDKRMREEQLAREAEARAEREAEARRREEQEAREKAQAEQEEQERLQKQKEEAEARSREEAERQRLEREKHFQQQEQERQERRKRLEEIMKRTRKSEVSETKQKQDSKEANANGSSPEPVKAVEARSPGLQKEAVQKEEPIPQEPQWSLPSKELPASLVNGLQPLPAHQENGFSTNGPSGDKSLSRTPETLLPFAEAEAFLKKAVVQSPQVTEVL

decrease of co-precipitated tubulin relative to wild-type MAP7D1: 40%
Substance: β-tubulin (tubulin of microtubules) (from UniProt P07437 1-444) (natural protein)
